Assay results reported in the RNAGym collection of RNA variant scans (doi:10.7554/elife.80360).

B1: Hairpin Ribozyme (parent)
chain: GUCCUCUUUCACGUGCGCGUGAAAGAGAGAAGUGAACCAGAGAAACACACGUUGUGGUAUAUUACCUGGUA

Variants of: B1
Assay: self-cleavage, relative activity (ratio to wild type); higher = more cleavage; co-transcriptional

In order of rising self-cleavage:
1. GUCCUCUUUCACGUGCGCGUGAAAGACAGAAGUGAACCAGAGAAACCCACGUUGUGGUAUAUUACCUGGUA  0.0432
2. GUCCUCUUUCACGUGCGCGUGAAAGACAGAAGUGAACGAGAGAAACACACGUUGUGGUAUAUUACCUGGUA  0.0571
3. GUCCUCUUUCACGUGCGCGUGAAAGACAGAAGUGAACCAGAGAAACACACGUUGUAGUAUAUUACCUGGUA  0.0609
4. GUCCUCUUUCACGUGCGCGUGAAAGACAGAAGUGAACCAAAGAAACACACGUUGUGGUAUAUUACCUGGUA  0.0679
5. GUCCUCUUUCACGUGCGCGUGAAAGACAGAAGUGAACCAGAGAAACACACGUUGUGGUAUAUUACCUCGUA  0.0698
6. GUCCUCUUUCACGUGCGCGUGAAAGACAGAAGAGAACCAGAGAAACACACGUUGUGGUAUAUUACCUGGUA  0.0754
7. GUCCUCUUUCACGUGCGCGUGAAAGACAGAAGGGAACCAGAGAAACACACGUUGUGGUAUAUUACCUGGUA  0.0854
8. GUCCUCUUUCACGUGCGCGUGAAAGACAGAAGUGAACCAGAGAAACACAUGUUGUGGUAUAUUACCUGGUA  0.0886
9. GUCCUCUUUCACGUGCGCGUGAAAGACAGAAGUGAACCAGAGAAACACACGUUGUGCUAUAUUACCUGGUA  0.0926
10. GUCCUCUUUCACGUGCGCGUGAAAGACAGAAGUGAACCAGAGAAACACACGUUGUGGUAUAUUACCUGCUA  0.1
11. GUCCUCUUUCACGUGCGCGUGAAAGACAGAAGUGAACCAGAGAAACACACGUUGUGGUAUAUUACCUAGUA  0.105
12. GUCCUCUUUCACGUGCGCGUGAAAGACAGAAGUGAACCAGAGCAACACACGUUGUGGUAUAUUACCUGGUA  0.107
13. GUCCUCUUUCACGUGCGCGUGAAAGACAGAAGUGAACCAGAGGAACACACGUUGUGGUAUAUUACCUGGUA  0.107
14. GUCCUCUUUCACGUGCGCGUGAAAGACAGAAGUGAACCACAGAAACACACGUUGUGGUAUAUUACCUGGUA  0.107
15. GUCCUCUUUCACGUGCGCGUGAAAGACAGAAGUGAACCAGAGAAACACAGGUUGUGGUAUAUUACCUGGUA  0.114
16. GUCCUCUUUCACGUGCGCGUGAAAGACAGAAGCGAACCAGAGAAACACACGUUGUGGUAUAUUACCUGGUA  0.117
17. GUCCUCUUUCACGUGCGCGUGAAAGACAGAAGUGAAACAGAGAAACACACGUUGUGGUAUAUUACCUGGUA  0.121
18. GUCCUCUUUCACGUGCGCGUGAAAGACAGAAGUGAACCAGAGAAACACUCGUUGUGGUAUAUUACCUGGUA  0.129
19. GUCCUCUUUCACGUGCGCGUGAAAGACAGAAGUGAACUAGAGAAACACACGUUGUGGUAUAUUACCUGGUA  0.131
20. GUCCUCUUUCACGUGCGCGUGAAAGACAGAAGUGAACCAGAGAAACACACGUUGUUGUAUAUUACCUGGUA  0.131
21. GUCCUCUUUCACGUGCGCGUGAAAGACAAAAGUGAACCAGAGAAACACACGUUGUGGUAUAUUACCUGGUA  0.138
22. GUCCUCUUUCACGUGCGCGUGAAAGACAGAAGUGAACCAGAGAAACACACGUUGUGGUAUAUUACCUGGUG  0.143
23. GUCCUCUUUCACGUGCGCGUGAAAGACAGAAGUGAACCAGAGAAACACACGUUGUGGUAUAUUAACUGGUA  0.146
24. GUCCUCUUUCACGUGCGCGUGAAAGACAGAAGUGAACCAGAGAAACACACGUUGUGAUAUAUUACCUGGUA  0.15
25. GUCCUCUUUCACGUGCGCGUGAAAGACAGAAGUGAACCAGAGAAACACACGUUCUGGUAUAUUACCUGGUA  0.151
26. GUCCUCUUUCACGUGCGCGUGAAAGACAGAAGUGAACCAGAGAAACACACGUUGUGGUAUAUUACAUGGUA  0.157
27. GUCCUCUUUCACGUGCGCGUGAAAGACAGAAGUAAACCAGAGAAACACACGUUGUGGUAUAUUACCUGGUA  0.161
28. GUCCUCUUUCACGUGCGCGUGAAAGACAGAAGUGAACCAGAGAAACACACGUUGUGGUAUAUUACUUGGUA  0.162
29. GUCCUCUUUCACGUGCGCGUGAAAGACAGAAGUGAACCAGAGAAACACACGAUGUGGUAUAUUACCUGGUA  0.167
30. GUCCUCUUUCACGUGCGCGUGAAAGACAGAAGUGAACCAGAGAAACACACGUUGUGUUAUAUUACCUGGUA  0.174
31. GUCCUCUUUCACGUGCGCGUGAAAGACAGAAGUGAACCAGAGAAACACACGUUGUGGUAUAUUACCUGGUU  0.178
32. GUCCUCUUUCACGUGCGCGUGAAAGACAUAAGUGAACCAGAGAAACACACGUUGUGGUAUAUUACCUGGUA  0.179
33. GUCCUCUUUCACGUGCGCGUGAAAGACAGAAGUGAACCAGAGAAACACACGUUGUGGUAUAUUGCCUGGUA  0.186
34. GUCCUCUUUCACGUGCGCGUGAAAGACAGAAGUGAACCAGAGAAACACACGUUUUGGUAUAUUACCUGGUA  0.192
35. GUCCUCUUUCACGUGCGCGUGAAAGACAGAAGUGAACCAGAGAAACAUACGUUGUGGUAUAUUACCUGGUA  0.231
36. GUCCUCUUUCACGUGCGCGUGAAAGACAGAAGUGAACCAGAGAAACACACAUUGUGGUAUAUUACCUGGUA  0.266
37. GUCCUCUUUCACGUGCGCGUGAAAGACAGAAGUUAACCAGAGAAACACACGUUGUGGUAUAUUACCUGGUA  0.779
38. GUCCUCUUUCACGUGCGCGUGAAAGACAGAAGUCAACCAGAGAAACACACGUUGUGGUAUAUUACCUGGUA  0.971
